Key:
[1] = molecular target: FKBP12-TEVct (118/119 sTEVp, C-terminal TEVp fragment fused to FKBP12) (not stated | tobacco etch virus); details: scale: % of the median FRET efficiency of control cells
[2] = molecular target: FKBP12-TEVct (118/119 sTEVp, C-terminal TEVp fragment fused to FKBP12) (not stated | tobacco etch virus); details: scale: % of the median FRET efficiency of control cells; remark: listed apart in the source
[3] = molecular target: C34V-FKBP12-TEVct (not stated | tobacco etch virus); details: scale: % of the median FRET efficiency of control cells
[4] = molecular target: FKBP12-TEVct (118/119 sTEVp, C-terminal TEVp fragment fused to FKBP12) (not stated | tobacco etch virus); details: scale: % of the median FRET efficiency of control cells; remark: listed apart in the source
[5] = molecular target: Lyn11-FKBP12-sTEVp-CT (membrane-targeted FKBP12-TEVct of pBud-mem-sTEVp) (not stated | tobacco etch virus); details: scale: % of the median FRET efficiency of control cells
[6] = molecular target: FKBP12-TEVct (118/119 sTEVp, C-terminal TEVp fragment fused to FKBP12) (not stated | tobacco etch virus); details: scale: % of the median FRET efficiency of control cells; remark: listed apart in the source
[7] = molecular target: Lyn11-FKBP12-sTEVp-CT (membrane-targeted FKBP12-TEVct of pBud-mem-sTEVp) (not stated | tobacco etch virus); details: scale: % of the median FRET efficiency of control cells; remark: listed apart in the source
[8] = molecular target: Lyn11-FKBP12-sTEVp-CT (membrane-targeted FKBP12-TEVct of pBud-mem-sTEVp) (not stated | tobacco etch virus)

## FRB-TEVnt (118/119 sTEVp, N-terminal TEVp fragment fused to FRB) (from UniProt P42346 2018-2114)
[1]
  TEVp activity by fragment complementation: median FRET efficiency of the substrate C34V in HeLa cells, 450 ng of each 118/119 sTEVp plasmid, 100 nM rapamycin for 3 hours at 37°C: 3
  background TEVp activity: median FRET efficiency of the substrate C34V in HeLa cells, 450 ng of each 118/119 sTEVp plasmid, without rapamycin: 83
[2]
  TEVp activity by fragment complementation: median FRET efficiency of the substrate C34V in HeLa cells, 125 ng sTEVp, rapamycin for 3 hours: 3
  background TEVp activity: median FRET efficiency of the substrate C34V in HeLa cells, 125 ng sTEVp (optimum of a titration of the plasmid mass from 40 ng upwards), without rapamycin: 96
[3]
  background TEVp activity in cis: median FRET efficiency of C34V-FKBP12-TEVct (300 ng) in HeLa cells with 25 ng FRB-TEVnt, without rapamycin (significant decrease at 25 ng FRB-TEVnt and above): 84
  inducible TEVp activity in cis: median FRET efficiency of C34V-FKBP12-TEVct (300 ng) in HeLa cells with 25 ng FRB-TEVnt, rapamycin for 3 hours (significant reduction also at 12 and 100 ng FRB-TEVnt): 0
[4]
  background TEVp activity: median FRET efficiency of soluble C34V (100 ng) in HeLa cells, 300-1000 ng pBud-sol-sTEVp, without rapamycin (97% at 300 ng, 84% at 1000 ng): 97
  inducible TEVp activity: median FRET efficiency of soluble C34V (100 ng) in HeLa cells, 300-1000 ng pBud-sol-sTEVp, 100 nM rapamycin for 3 hours (9% at 300 ng, 3% at 1000 ng): 9
[5]
  background TEVp activity: median FRET efficiency of soluble C34V (100 ng) in HeLa cells, 300-1000 ng pBud-mem-sTEVp, without rapamycin (no significant difference from control): 100
  inducible TEVp activity: median FRET efficiency of soluble C34V (100 ng) in HeLa cells, 300-1000 ng pBud-mem-sTEVp, rapamycin (30% at 300 ng, 12% at 1000 ng): 30
[6]
  background TEVp activity: median FRET efficiency of membrane-targeted mem-C34V (100 ng) in HeLa cells, 300-1000 ng pBud-sol-sTEVp, without rapamycin (98% at 300 ng, 89% at 1000 ng): 98
  inducible TEVp activity: median FRET efficiency of membrane-targeted mem-C34V (100 ng) in HeLa cells, 300-1000 ng pBud-sol-sTEVp, rapamycin (7% at 300 ng, 3% at 1000 ng): 7
[7]
  background TEVp activity: median FRET efficiency of membrane-targeted mem-C34V in HeLa cells, 300-1000 ng pBud-mem-sTEVp, without rapamycin (56% at 300 ng, 46% at 1000 ng): 56
  inducible TEVp activity: median FRET efficiency of membrane-targeted mem-C34V in HeLa cells, 300-1000 ng pBud-mem-sTEVp, rapamycin for 3 hours: < 4
[8]
  inducible TEVp activity: median degree of current inactivation 1-(I95ms/Imax) of EGFP-KV3.4 (1 µg RNA) in HEK-293 cells, 1-3 µg pBud-mem-sTEVp, rapamycin (0.31 at 1 µg, 0.53 at 3 µg): 0.53
